The record followed here is patent US20220403022A1 (Merck KGaA, published 2022).

Test [1] concerns the target T1, human TIGIT ECD expressed on the CHO-S cell surface (human, UniProt Q495A1 22-141).
T1 sequence: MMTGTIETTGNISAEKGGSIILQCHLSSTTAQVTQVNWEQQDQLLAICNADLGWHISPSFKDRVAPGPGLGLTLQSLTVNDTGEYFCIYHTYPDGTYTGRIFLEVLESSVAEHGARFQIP
In words: cell-based or functional assay.

The target of test [2] is T2, His-tagged human TIGIT (human, UniProt Q495A1 22-141).
T2 construct: soluble analyte in SPR
T2 sequence: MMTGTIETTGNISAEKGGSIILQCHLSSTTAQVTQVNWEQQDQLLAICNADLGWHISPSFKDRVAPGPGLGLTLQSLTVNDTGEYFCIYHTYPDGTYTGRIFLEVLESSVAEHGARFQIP
In words: SPR Biacore, antibody captured on anti-human Fc, His-tagged TIGIT injected. Background: In SPR one partner is held on a chip, and binding of the other changes the refractive index at the surface.

Test [3] concerns the target T3, His-tagged cynomolgus monkey TIGIT (cynomolgus monkey, UniProt A0A7N9I9V4 89-209).
T3 construct: also called Cyno TIGIT; cynomolgus monkey TIGIT (Novoprotein cat. No. CP02)
The test is described as above.

Test [4] concerns the target T4, cynomolgus monkey TIGIT ECD expressed on the CHO-S cell surface (cynomolgus monkey).
T4 construct: extracellular domain; also called CHO-S-cynoTIGIT
In words: flow cytometry on CHO-S cells expressing cyno TIGIT ECD. In general terms: A flow cytometer gives signals particle by particle.

The target of test [5] is T2, His-tagged human TIGIT. In words: SPR, IgG captured on anti-human Fc, His-tagged human TIGIT injected.
Test [6] concerns the target T5, human TIGIT on cells (primary T cells, transfected HEK293 cells, Jurkat reporter cells, NK cells) (human, UniProt Q495A1 22-244).
T5 sequence: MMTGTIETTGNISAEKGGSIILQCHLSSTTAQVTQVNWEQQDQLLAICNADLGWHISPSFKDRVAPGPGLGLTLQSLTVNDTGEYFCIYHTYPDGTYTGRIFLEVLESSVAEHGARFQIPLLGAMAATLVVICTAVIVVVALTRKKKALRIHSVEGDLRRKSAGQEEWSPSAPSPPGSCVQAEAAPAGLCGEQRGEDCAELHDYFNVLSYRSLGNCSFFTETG
In words: cell-based or functional assay.

In a further test the target is T6, CD226 (UniProt Q15762 19-247, limits assumed).
T6 construct: also called related family member protein CD226
T6 sequence (looked up): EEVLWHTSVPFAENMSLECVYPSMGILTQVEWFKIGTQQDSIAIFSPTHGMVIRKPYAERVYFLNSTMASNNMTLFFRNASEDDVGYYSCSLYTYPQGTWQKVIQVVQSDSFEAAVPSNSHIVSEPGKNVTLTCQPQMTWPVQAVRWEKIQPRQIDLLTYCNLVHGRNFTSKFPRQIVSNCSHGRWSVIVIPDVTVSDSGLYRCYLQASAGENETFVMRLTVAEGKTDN
In words: ELISA EC50 assay.

Another test addresses T7, PD-L1 (UniProt Q9NZQ7 19-238, limits assumed).
T7 construct: also called unrelated protein PD-L1
In words: ELISA EC50 assay. A general note: An ELISA detects its analyte on a solid surface through an enzyme-linked reagent.

The target of test [7] is T1, human TIGIT ECD expressed on the CHO-S …. In words: flow cytometry on CHO-S cells expressing human TIGIT ECD.
In test [8] the target is T2, His-tagged human TIGIT. In words: SPR, IgG captured on anti-human Fc, His-tagged human TIGIT injected. This is another data set of the same source.
Test [9] has as its target T4, cynomolgus monkey TIGIT ECD expressed …. In words: flow cytometry on CHO-S cells expressing cynomolgus monkey TIGIT ECD.
Test [10] addresses T1, human TIGIT ECD expressed on the CHO-S …. In words: flow cytometry on CHO-S cells expressing human TIGIT ECD. This is another data set of the same source.
The target is the same in test [11]. In words: flow cytometry blocking assay on CHO-S-hTIGIT cells, competitor muCD112; competitor muCD112; muIgG2c version.
Test [12] shares this target. In words: flow cytometry blocking assay on CHO-S-hTIGIT cells, competitor muCD155-Fc; competitor muCD155-Fc; muIgG2c version.

Where “and” joins values, the source holds several entries; their conditions need not be identical. Equal entries are not always repeated.

T7 sequence (Q9NZQ7 19-238 limits assumed): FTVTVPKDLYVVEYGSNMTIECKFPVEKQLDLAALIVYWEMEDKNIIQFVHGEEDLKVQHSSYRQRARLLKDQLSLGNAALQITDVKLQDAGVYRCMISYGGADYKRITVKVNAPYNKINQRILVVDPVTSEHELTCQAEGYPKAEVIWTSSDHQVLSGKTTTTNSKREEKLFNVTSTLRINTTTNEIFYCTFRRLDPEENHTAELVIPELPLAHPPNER
T3 sequence (A0A7N9I9V4 entry or part of it): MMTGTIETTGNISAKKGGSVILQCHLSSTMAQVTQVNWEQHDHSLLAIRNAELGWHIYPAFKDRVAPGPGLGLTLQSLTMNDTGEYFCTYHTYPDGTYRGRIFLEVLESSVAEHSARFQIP

B1: 3963H03 (antibody, human IgG1, kappa, V domains shown)
VH: EIQLVQSGSELKKPGASVKVSCKASGYTFTSYPMNWVRQAPGQGLEWMGWINTNTGNPTYAQGFTGRFVFSLDTSVSTAYLQISSLKAEDTAVYYCARVGGYSVDEYAFDVWGQGTMVTVSS
VL: AIRLTQSPSFLSASVGDRVTITCRASQGISSYLAWYQQKPGKAPKLLIYAASTLQSGVPSRFSGSGSGTEFTLTISSLQPEDFATYYCQQLNSYPTFGGGTKVEIKR
notes: fully human IgG1 kappa, B-cell cloning hit from OmniRat; also called 3963H03 VH; 3963H03 VK
As usually defined, the Kd is the equilibrium constant for the complex coming apart. Broadly, the koff is a measure of how fast the partners let go of each other. One may read the kon as the second-order rate constant of association. The EC50 is the concentration that produces a half-maximal response. In the case of B1, in test [1], the “ADCC EC50, nM (Donor 1005-4464)” value stood at 0.028 nM. Besides, in [1], the “ADCC EC50, nM (Donor 1102-7215)” value is 0.069 nM. Moreover, in test [1], the “ADCC EC50, nM (Donor 1106-0557)” value was 0.08 nM. Further, the Kd in the test with His-tagged human TIGIT [2] was 3.37 nM and 3.4 nM; in [3], 1.45 nM and 1.5 nM. The koff with His-tagged human TIGIT [2] is 0.000407 s⁻¹; in [3], 0.000213 s⁻¹; with His-tagged human TIGIT [5] it was 0.00063 s⁻¹; in the test with His-tagged human TIGIT [8], 0.00063 s⁻¹. In addition, the kon with His-tagged human TIGIT [2] is 121000 M⁻¹ s⁻¹; in test [3] it was 147000 M⁻¹ s⁻¹. Moreover, the EC50 in test [4] worked out at 3.6 nM; in [6] it was 6.3 µg/mL; in [7], 4.7 nM. Further, the binding result with CD226 and with PD-L1 was “no binding” each time.

B2: 7729G05 (antibody, V domains shown)
VH: QVQLVQSGSELKKPGASVKVSCKASGYTFTSYPMNWVRQAPGQGLEWMGWINTNTGNPTYAQGFTGRFVFSLDTSVSTAYLQISSLKAEDTAVYYCARVGGFTVPEYAFDIWGQGTTVTVSS
VL: DIRLTQSPSFLSASVGDRVTITCRASQGISSYLAWYQQKPGKAPKLLIYAASTLQSGVPSRFSGSGSGTEFTLTISSLQPEDFATYYCGQVMRYPAFGGGTKVEIK
notes: constant regions correspond to those of H03-12
With B2, in the test with His-tagged human TIGIT [2], the Kd was 0.0173 nM and < 0.05 nM; the off-rate (koff) came out at 1.33e-05 s⁻¹; the kon is 767000 M⁻¹ s⁻¹. Also, in test [3], the equilibrium dissociation constant (Kd) is 0.0211 nM and < 0.05 nM; the dissociation rate constant (koff) stood at 1.23e-05 s⁻¹; the kon amounted to 581000 M⁻¹ s⁻¹.

B3: 7728B03 (antibody, V domains shown)
VH: QMQLVQSGSELKKPGASVKVSCKASGYTFTSYPMNWVRQAPGQGLEWMGWINTNTGNPTYAQGFTGRFVFSLDTSVSTAYLQISSLKAEDTAVYYCARTGGYSVDEYSFDIWGQGTTVTVSS
VL: DIQLTQSPSFLSASVGDRVTITCRASQGISSYLAWYQQKPGKAPKLLIYAASTLQSGVPSRFSGSGSGTEFTLTISSLQPEDFATYYCHQTIFRPTFGGGTKVEIK
notes: as for B2
For the molecule B3, in the test with His-tagged human TIGIT [2], the Kd was 0.0661 nM and 0.07 nM; the dissociation rate constant (koff) was 2.15e-05 s⁻¹; the association rate constant (kon) is 325000 M⁻¹ s⁻¹. In addition, in [3], the Kd was 0.0519 nM and 0.05 nM; the koff was 1.57e-05 s⁻¹; the association rate constant (kon) stood at 303000 M⁻¹ s⁻¹.

B4: 3964A06 (antibody, human IgG1, V domains shown)
VH: EVQLVQSGSELKKPGASVKVSCKASGYTFTAYPMNWVRQAPGQGLEWMGWINTNTGNPTYAQGFTGRFVFSLDTSVSTAYLQISSLKAEDTAVYYCARVGGYSVYDYAFDIWGQGTMVTVSS
VL: DIQLTQSPSFLSASVGDRVTITCRASQGISSYLAWYQQKPGKAPKLLIYAASTLQSGVPSRFSGSGSGTEFTLTISSLQPEDFATYYCQQLNSYPTFGGGTKVEIK
Broadly, the EC50 (read off the curve) is the concentration that produces a half-maximal response. For the molecule B4, the dissociation constant (Kd) was 2.62 nM and 2.6 nM with His-tagged human TIGIT [2]; 1.11 nM and 1.1 nM in test [3]. In addition, the off-rate constant (koff) in the test with His-tagged human TIGIT [2] worked out at 0.000233 s⁻¹; in [3] it was 0.000122 s⁻¹. Besides, the results for the kon (with His-tagged human TIGIT [2]; in test [3]) were 89100 M⁻¹ s⁻¹ and 109000 M⁻¹ s⁻¹, respectively. The “EC50 (read off the curve)” value was about 8 nM in test [9] and about 9 nM in [10]. Besides, the binding result with CD226 and in the test with PD-L1 was “no binding” throughout.

B5: 3963H03-12-muIgG2c (antibody, V domains shown)
VH: QVQLVQSGSELKKPGASVKVSCKASGYTFTSYPMNWVRQAPGQGLEWMGWINTNTGNPTYAQGFTGRFVFSLDTSVSTAYLQISSLKAEDTAVYYCARVGGYSVDEYAFDVWGQGTLVTVSS
VL: DIQLTQSPSFLSASVGDRVTITCRASQGISSYLAWYQQKPGKAPKLLIYAASTLQSGVPSRFSGSGSGTEFTLTISSLQPEDFATYYCQQLSSYPTFGGGTKVEIK
notes: also called version of 3963H03-12 with a murine immunoglobulin
As usually defined, the IC50 is the concentration that inhibits the measured activity by half. For B5, the IC50 in [11] worked out at 1.19 µg/mL; in [12] it was 0.291 µg/mL.

B6: 3966C11 (antibody, human IgG1, V domains shown)
VH: EIQLVQSGSELKKPGASVKVSCKASGYTFTSYPMNWVRQAPGQGLEWMGWINTNTGNPTNAQGFTGRFVFSLDTSVSTAYLQISSLKAEDTAVYYCARVGGYGGYDYAFDIWGQGTMVTVSS
VL: DIQLTQSPSFLSASVGDRVTITCRASQGISSYLAWYQQKPGKAPKLLIYAASTLQSGVPSRFSGSGSGTEFTLTISSLQPEDFATYYCQQLNSYPTFGGGTKLEIK
notes: constant regions correspond to those of H03-12 (human IgG1, kappa)
As to B6, the Kd is 2.53 nM and 2.5 nM in the test with His-tagged human TIGIT [2]; 1.41 nM and 1.4 nM in [3]. Moreover, the values for the koff (in the test with His-tagged human TIGIT [2]; in test [3]) were 0.000274 s⁻¹ and 0.000167 s⁻¹, respectively. For the same molecule, the results for the kon (with His-tagged human TIGIT [2]; in test [3]) were 108000 M⁻¹ s⁻¹ and 118000 M⁻¹ s⁻¹, respectively. The concentration for a half-maximal effect (EC50 (read off the curve)) in test [9] is about 7 nM; in test [10] it was about 9 nM. The binding result with CD226 and with PD-L1 was “no binding” in each case.

B7: 3965D08 (antibody, human IgG1, V domains shown)
VH: EVQLVQSGSELKKPGASVKVSCKASGYTFTSYPMNWVRQAPGQGLEWMGWINTNTGNPTYAQGFTGRFVFSLDTSVSTAYLQISSLKAEDTAVYYCARTGYSGSYYWFDPWGQGTLVTVSS
VL: DIRLTQSPSFLSASVGDRVTITCRASQGISSYLAWYQQKPGKAPKFLIYAASTLQSGVPSRFSGSGSGTEFTLTISSLQPEDFATYYCQQLNSYLTFGQGTRLEIK
notes: as for B6
For the molecule B7, the Kd with His-tagged human TIGIT [2] was 10.3 nM; in test [3], 8.66 nM and 8.7 nM. In addition, the koff with His-tagged human TIGIT [2] came to 0.00497 s⁻¹; in test [3], 0.00565 s⁻¹. For the same molecule, the results for the on-rate constant (kon) (with His-tagged human TIGIT [2]; in test [3]) were 482000 M⁻¹ s⁻¹ and 653000 M⁻¹ s⁻¹, respectively. The half-maximal effective concentration (EC50 (read off the curve)) was about 3 nM in [9] and about 5 nM in test [10]. The binding result with CD226 and with PD-L1 was “no binding” throughout.
